Source: paper PMC7949124, “Metallo-β-lactamase domain-containing protein 2 is S-palmitoylated and exhibits acyl-CoA hydrolase activity” (The Journal of Biological Chemistry, 2020)

Substrate: CCCCCCCCCCCCCCCC(=O)SCCNC(=O)CCNC(=O)[C@H](O)C(C)(C)COP(=O)(O)OP(=O)(O)OC[C@H]1O[C@@H](n2cnc3c(N)ncnc32)[C@H](O)[C@@H]1OP(=O)(O)O
Test: radiometric acyl-CoA hydrolase assay, heptane extraction of [3H]-palmitate
Assay type: biochemical, Homo sapiens
Details: 30 °C, 10 min, 0.05% DDM, labelled compound ([3H] tracer diluted with unlabelled), fitted over 0-10 μM because of substrate inhibition, n = 4
Description: radiometric acyl-CoA hydrolase assay, heptane extraction of [3H]-palmitate on MBLAC2

| Protein | Km [µM] | Vmax [µmol/min/mg] |
| --- | --- | --- |
| MBLAC2 (Homo sapiens) (protein, N-terminal hexahistidine tag, C-terminal FLAG; baculovirus/Sf9; zinc metalloenzyme; partly S-palmitoylated at Cys254) MSALEWYAHKSLGDGIFWIQERFYESGNRANIWLVRGSEQDVVIDTGLGLRSLPEYLYSSGLLQDREAKEDAARRPLLAVATHVHFDHSGGLYQFDRVAVHHAEAEALARGDNFETVTWLSDSEVVRTPSPGWRARQFRVQAVQPTLILQDGDVINLGDRQLTVMHMPGHSRGSICLHDKDRKILFSGDVVYDGSLIDWLPYSRISDYVGTCERLIELVDRGLVEKVLPGHFNTFGAERLFRLASNYISKAGICHKVSTFAMRSLASLALRVTNSRTSP | 1.9 ± 0.6 | 0.103 |
| MBLAC2 (Homo sapiens; C254A) (protein, N-terminal hexahistidine tag, C-terminal FLAG; baculovirus/Sf9; zinc metalloenzyme; partly S-palmitoylated at Cys254) MSALEWYAHKSLGDGIFWIQERFYESGNRANIWLVRGSEQDVVIDTGLGLRSLPEYLYSSGLLQDREAKEDAARRPLLAVATHVHFDHSGGLYQFDRVAVHHAEAEALARGDNFETVTWLSDSEVVRTPSPGWRARQFRVQAVQPTLILQDGDVINLGDRQLTVMHMPGHSRGSICLHDKDRKILFSGDVVYDGSLIDWLPYSRISDYVGTCERLIELVDRGLVEKVLPGHFNTFGAERLFRLASNYISKAGIAHKVSTFAMRSLASLALRVTNSRTSP | 2.2 ± 0.7 | 0.0879 |
